# Test results as given in IntAct's records for PubMed 31515488.
# B1: Maspardin (Homo sapiens), Q9NZD8 (parent)
# chain: MGEIKVSPDYNWFRGTVPLKKIIVDDDDSKIWSLYDAGPRSIRCPLIFLPPVSGTADVFFRQILALTGWGYRVIALQYPVYWDHLEFCDGFRKLLDHLQLDKVHLFGASLGGFLAQKFAEYTHKSPRVHSLILCNSFSDTSIFNQTWTANSFWLMPAFMLKKIVLGNFSSGPVDPMMADAIDFMVDRLESLGQSELASRLTLNCQNSYVEPHKIRDIPVTIMDVFDQSALSTEAKEEMYKLYPNARRAHLKTGGNFPYLCRSAEVNLYVQIHLLQFHGTKYAAIDPSMVSAEELEVQKGSLGISQEEQ
# B2: Cytochrome P450 4F12 (Homo sapiens), Q9HCS2 (parent)
# chain: MSLLSLPWLGLRPVATSPWLLLLLVVGSWLLARILAWTYAFYNNCRRLQCFPQPPKRNWFWGHLGLITPTEEGLKNSTQMSATYSQGFTVWLGPIIPFIVLCHPDTIRSITNASAAIAPKDNLFIRFLKPWLGEGILLSGGDKWSRHRRMLTPAFHFNILKSYITIFNKSANIMLDKWQHLASEGSSRLDMFEHISLMTLDSLQKCIFSFDSHCQERPSEYIATILELSALVEKRSQHILQHMDFLYYLSHDGRRFHRACRLVHDFTDAVIRERRRTLPTQGIDDFFKDKAKSKTLDFIDVLLLSKDEDGKALSDEDIRAEADTFMFGGHDTTASGLSWVLYNLARHPEYQERCRQEVQELLKDRDPKEIEWDDLAQLPFLTMCVKESLRLHPPAPFISRCCTQDIVLPDGRVIPKGITCLIDIIGVHHNPTVWPDPEVYDPFRFDPENSKGRSPLAFIPFSAGPRNCIGQAFAMAEMKVVLALMLLHFRFLPDHTEPRRKLELIMRAEGGLWLRVEPLNVSLQ
# partner: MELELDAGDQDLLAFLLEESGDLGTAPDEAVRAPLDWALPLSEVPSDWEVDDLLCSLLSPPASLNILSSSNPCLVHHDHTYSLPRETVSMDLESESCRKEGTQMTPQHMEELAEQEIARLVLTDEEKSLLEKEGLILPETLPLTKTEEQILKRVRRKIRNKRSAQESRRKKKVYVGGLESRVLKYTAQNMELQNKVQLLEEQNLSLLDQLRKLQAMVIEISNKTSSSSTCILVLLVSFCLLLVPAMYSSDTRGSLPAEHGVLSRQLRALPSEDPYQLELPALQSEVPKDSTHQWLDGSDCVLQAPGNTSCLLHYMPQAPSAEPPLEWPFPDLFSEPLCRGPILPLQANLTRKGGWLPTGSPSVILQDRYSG
# B3: Keratin, type I cytoskeletal 20 (Homo sapiens), P35900 (parent)
# chain: MDFSRRSFHRSLSSSLQAPVVSTVGMQRLGTTPSVYGGAGGRGIRISNSRHTVNYGSDLTGGGDLFVGNEKMAMQNLNDRLASYLEKVRTLEQSNSKLEVQIKQWYETNAPRAGRDYSAYYRQIEELRSQIKDAQLQNARCVLQIDNAKLAAEDFRLKYETERGIRLTVEADLQGLNKVFDDLTLHKTDLEIQIEELNKDLALLKKEHQEEVDGLHKHLGNTVNVEVDAAPGLNLGVIMNEMRQKYEVMAQKNLQEAKEQFERQTAVLQQQVTVNTEELKGTEVQLTELRRTSQSLEIELQSHLSMKESLEHTLEETKARYSSQLANLQSLLSSLEAQLMQIRSNMERQNNEYHILLDIKTRLEQEIATYRRLLEGEDVKTTEYQLSTLEERDIKKTRKIKTVVQEVVDGKVVSSEVKEVEENI
# B4: Keratin, type II cytoskeletal 79 (Homo sapiens), Q5XKE5 (parent)
# chain: MRSSVSRQTYSTKGGFSSNSASGGSGSQARTSFSSVTVSRSSGSGGGAHCGPGTGGFGSRSLYNLGGHKSISVSVAGGALLGRALGGFGFGSRAFMGQGAGRQTFGPACPPGGIQEVTVNQSLLTPLHVEIDPEIQRVRTQEREQIKTLNNKFASFIDKVRFLEQQNKVLETKWALLQEQGQNLGVTRNNLEPLFEAYLGSMRSTLDRLQSERGRLDSELRNVQDLVEDFKNKYEDEINKHTAAENEFVVLKKDVDAAYMGRMDLHGKVGTLTQEIDFLQQLYEMELSQVQTHVSNTNVVLSMDNNRNLDLDSIIAEVKAQYELIAQRSRAEAEAWYQTKYEELQVTAGKHGDNLRDTKNEIAELTRTIQRLQGEADAAKKQCQQLQTAIAEAEQRGELALKDAQKKLGDLDVALHQAKEDLTRLLRDYQELMNVKLALDVEIATYRKLLESEESRMSGECPSAVSISVTGNSTTVCGGGAASFGGGISLGGSGGATKGGFSTNVGYSTVKGGPVSAGTSILRKTTTVKTSSQRY
# partner: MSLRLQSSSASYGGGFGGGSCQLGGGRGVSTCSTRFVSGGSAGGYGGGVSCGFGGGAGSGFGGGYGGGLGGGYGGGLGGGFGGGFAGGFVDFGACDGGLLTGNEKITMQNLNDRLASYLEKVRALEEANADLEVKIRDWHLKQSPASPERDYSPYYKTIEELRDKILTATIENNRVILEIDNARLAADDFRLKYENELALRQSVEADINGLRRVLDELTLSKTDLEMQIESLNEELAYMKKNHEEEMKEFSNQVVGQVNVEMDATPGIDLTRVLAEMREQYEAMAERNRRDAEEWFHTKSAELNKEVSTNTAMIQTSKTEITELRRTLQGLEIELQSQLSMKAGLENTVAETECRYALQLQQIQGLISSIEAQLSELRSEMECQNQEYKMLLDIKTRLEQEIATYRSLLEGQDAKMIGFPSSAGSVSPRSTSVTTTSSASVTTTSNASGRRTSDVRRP
# B5: E3 ubiquitin-protein ligase SH3RF2 (Homo sapiens), Q8TEC5 (parent)
# chain: MDDLTLLDLLECPVCFEKLDVTAKVLPCQHTFCKPCLQRVFKAHKELRCPECRTPVFSNIEALPANLLLVRLLDGVRSGQSSGRGGSFRRPGTMTLQDGRKSRTNPRRLQASPFRLVPNVRIHMDGVPRAKALCNYRGQNPGDLRFNKGDIILLRRQLDENWYQGEINGISGNFPASSVEVIKQLPQPPPLCRALYNFDLRGKDKSENQDCLTFLKDDIITVISRVDENWAEGKLGDKVGIFPILFVEPNLTARHLLEKNKGRQSSRTKNLSLVSSSSRGNTSTLRRGPGSRRKVPGQFSITTALNTLNRMVHSPSGRHMVEISTPVLISSSNPSVITQPMEKADVPSSCVGQVSTYHPAPVSPGHSTAVVSLPGSQQHLSANMFVALHSYSAHGPDELDLQKGEGVRVLGKCQDGWLRGVSLVTGRVGIFPNNYVIPIFRKTSSFPDSRSPGLYTTWTLSTSSVSSQGSISEGDPRQSRPFKSVFVPTAIVNPVRSTAGPGTLGQGSLRKGRSSMRKNGSLQRPLQSGIPTLVVGSLRRSPTMVLRPQQFQFYQPQGIPSSPSAVVVEMGSKPALTGEPALTCISRGSEAWIHSAASSLIMEDKEIPIKSEPLPKPPASAPPSILVKPENSRNGIEKQVKTVRFQNYSPPPTKHYTSHPTSGKPEQPATLKASQPEAASLGPEMTVLFAHRSGCHSGQQTDLRRKSALGKATTLVSTASGTQTVFPSK
# B6: Protein boule-like (Homo sapiens), Q8N9W6 (parent)
# chain: MQTDSLSPSPNPVSPVPLNNPTSAPRYGTVIPNRIFVGGIDFKTNESDLRKFFSQYGSVKEVKIVNDRAGVSKGYGFVTFETQEDAQKILQEAEKLNYKDKKLNIGPAIRKQQVGIPRSSIMPAAGTMYLTTSTGYPYTYHNGVAYFHTPEVTSVPPPWPSRSVCSSPVMVAQPIYQQPAYHYQATTQYLPGQWQWSVPQPSASSAPFLYLQPSEVIYQPVEIAQDGGCVPPPLSLMETSVPEPYSDHGVQATYHQVYAPSAITMPAPVMQPEPIKTVWSIHY
# partner: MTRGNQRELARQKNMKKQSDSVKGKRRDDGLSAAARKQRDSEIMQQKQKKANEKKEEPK
# Variants of: B1
# Conditions: with rtn4_human RTN4, Q9NQC3
row,Variant,effect of a mutation on the interaction
1,A180T,with no effect

# Variants of: B1
# Conditions: with cryaa_human CRYAA
row,Variant,effect of a mutation on the interaction
1,A180T,disrupting interaction strength

# Variants of: B1
# Conditions: with reep6_human REEP6, Q96HR9
# Sequence of reep6_human REEP6, Q96HR9 (Q96HR9 whole entry): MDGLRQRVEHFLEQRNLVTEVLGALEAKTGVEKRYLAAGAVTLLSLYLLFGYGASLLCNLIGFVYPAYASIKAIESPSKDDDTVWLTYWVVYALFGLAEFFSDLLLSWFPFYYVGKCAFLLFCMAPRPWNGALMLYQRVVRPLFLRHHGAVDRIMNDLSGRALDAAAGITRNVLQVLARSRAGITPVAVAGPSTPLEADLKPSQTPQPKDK
row,Variant,effect of a mutation on the interaction
1,A180T,with no effect

# Variants of: B1
# Conditions: with traf2_human TRAF2, Q12933
# Sequence of traf2_human TRAF2, Q12933 (Q12933 whole entry): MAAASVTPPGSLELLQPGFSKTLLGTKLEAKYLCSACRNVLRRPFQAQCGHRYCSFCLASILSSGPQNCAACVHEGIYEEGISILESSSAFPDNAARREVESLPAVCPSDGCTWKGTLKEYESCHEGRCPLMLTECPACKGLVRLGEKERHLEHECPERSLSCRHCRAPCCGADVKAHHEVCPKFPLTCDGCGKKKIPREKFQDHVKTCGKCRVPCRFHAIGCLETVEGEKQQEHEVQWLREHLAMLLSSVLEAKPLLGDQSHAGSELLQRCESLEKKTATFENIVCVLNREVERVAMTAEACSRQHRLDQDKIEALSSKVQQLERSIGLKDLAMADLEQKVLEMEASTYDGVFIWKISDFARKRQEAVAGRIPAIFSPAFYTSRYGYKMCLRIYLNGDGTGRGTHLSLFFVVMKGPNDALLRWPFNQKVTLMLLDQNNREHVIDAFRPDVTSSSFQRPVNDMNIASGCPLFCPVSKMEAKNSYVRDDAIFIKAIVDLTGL
row,Variant,effect of a mutation on the interaction
1,A180T,with no effect

# Variants of: B1
# Conditions: with spre2_human SPRED2, Q7Z698
# Sequence of spre2_human SPRED2, Q7Z698 (Q7Z698 whole entry): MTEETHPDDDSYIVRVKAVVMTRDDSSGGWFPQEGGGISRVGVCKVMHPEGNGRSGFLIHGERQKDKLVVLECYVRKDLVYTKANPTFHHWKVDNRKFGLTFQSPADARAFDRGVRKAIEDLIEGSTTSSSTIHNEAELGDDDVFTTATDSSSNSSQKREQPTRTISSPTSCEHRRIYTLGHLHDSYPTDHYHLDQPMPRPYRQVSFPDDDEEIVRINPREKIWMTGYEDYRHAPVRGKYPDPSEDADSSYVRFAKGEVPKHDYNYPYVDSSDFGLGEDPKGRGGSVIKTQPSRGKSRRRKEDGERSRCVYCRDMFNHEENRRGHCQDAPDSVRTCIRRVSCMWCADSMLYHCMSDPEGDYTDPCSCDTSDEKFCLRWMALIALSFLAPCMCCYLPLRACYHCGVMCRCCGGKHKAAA
row,Variant,effect of a mutation on the interaction
1,A180T,with no effect

# Variants of: B1
# Conditions: with htf4_human TCF12, Q99081
# Sequence of htf4_human TCF12, Q99081 (Q99081 whole entry): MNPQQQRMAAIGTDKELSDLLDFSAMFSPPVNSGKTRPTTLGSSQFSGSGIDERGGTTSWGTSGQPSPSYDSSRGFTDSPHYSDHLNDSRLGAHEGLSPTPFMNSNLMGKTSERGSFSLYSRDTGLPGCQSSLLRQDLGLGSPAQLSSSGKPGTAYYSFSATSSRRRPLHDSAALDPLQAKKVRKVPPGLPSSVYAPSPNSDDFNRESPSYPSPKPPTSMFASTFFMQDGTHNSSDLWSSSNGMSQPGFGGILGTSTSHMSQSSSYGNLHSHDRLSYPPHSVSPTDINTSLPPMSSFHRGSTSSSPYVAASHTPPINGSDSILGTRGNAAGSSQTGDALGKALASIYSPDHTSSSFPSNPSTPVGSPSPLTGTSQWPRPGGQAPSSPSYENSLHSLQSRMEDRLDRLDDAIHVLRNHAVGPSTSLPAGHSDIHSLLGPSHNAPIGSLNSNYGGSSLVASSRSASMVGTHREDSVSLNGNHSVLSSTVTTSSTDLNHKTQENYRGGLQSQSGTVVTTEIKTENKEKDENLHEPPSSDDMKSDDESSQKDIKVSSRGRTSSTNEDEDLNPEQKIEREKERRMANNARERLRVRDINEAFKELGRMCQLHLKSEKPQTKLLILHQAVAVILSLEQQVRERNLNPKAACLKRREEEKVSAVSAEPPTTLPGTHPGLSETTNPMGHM
row,Variant,effect of a mutation on the interaction
1,A180T,with no effect

# Variants of: B1
# Conditions: with atrap_human AGTRAP
row,Variant,effect of a mutation on the interaction
1,A180T,with no effect

# Variants of: B1
# Conditions: with akir2_human AKIRIN2, Q53H80
# Sequence of akir2_human AKIRIN2, Q53H80 (Q53H80 whole entry): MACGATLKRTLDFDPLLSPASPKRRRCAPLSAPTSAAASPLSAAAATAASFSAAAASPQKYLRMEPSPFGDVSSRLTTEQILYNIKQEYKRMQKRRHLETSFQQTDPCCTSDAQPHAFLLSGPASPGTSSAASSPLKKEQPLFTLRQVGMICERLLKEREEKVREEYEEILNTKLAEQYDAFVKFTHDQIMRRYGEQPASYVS
row,Variant,effect of a mutation on the interaction
1,A180T,with no effect

# Variants of: B2
# Conditions: with creb3_human CREB3, O43889
row,Variant,effect of a mutation on the interaction
1,R272Q,with no effect
2,R254W,disrupting interaction strength

# Variants of: B3
# Conditions: with KRT15, P19012
# Sequence of KRT15, P19012 (P19012 whole entry): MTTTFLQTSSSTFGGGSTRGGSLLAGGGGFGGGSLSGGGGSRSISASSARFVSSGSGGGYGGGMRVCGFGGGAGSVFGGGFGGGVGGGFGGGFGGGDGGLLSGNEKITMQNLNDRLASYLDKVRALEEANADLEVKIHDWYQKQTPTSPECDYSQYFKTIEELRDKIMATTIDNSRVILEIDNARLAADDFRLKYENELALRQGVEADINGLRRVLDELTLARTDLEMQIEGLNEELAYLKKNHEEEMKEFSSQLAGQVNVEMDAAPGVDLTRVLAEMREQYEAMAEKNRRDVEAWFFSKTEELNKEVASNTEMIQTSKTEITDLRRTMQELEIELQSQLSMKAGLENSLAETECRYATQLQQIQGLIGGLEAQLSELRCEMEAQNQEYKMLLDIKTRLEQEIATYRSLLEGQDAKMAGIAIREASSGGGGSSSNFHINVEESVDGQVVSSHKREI
row,Variant,effect of a mutation on the interaction
1,S129N,with no effect
2,S309Y,with no effect

# Variants of: B3
# Conditions: with vime_human VIM
row,Variant,effect of a mutation on the interaction
1,S129N,with no effect
2,S309Y,with no effect

# Variants of: B4
# Conditions: with KRT13, P13646
row,Variant,effect of a mutation on the interaction
1,D217Y,with no effect
2,R213W,with no effect
3,R161Q,with no effect
4,R30C,with no effect
5,H266R,with no effect
6,G86E,with no effect

# Variants of: B5
# Conditions: with rbpms_human RBPMS
row,Variant,effect of a mutation on the interaction
1,V687I,with no effect

# Variants of: B5
# Conditions: with amol2_human AMOTL2, Q9Y2J4
# Sequence of amol2_human AMOTL2, Q9Y2J4 (Q9Y2J4 whole entry): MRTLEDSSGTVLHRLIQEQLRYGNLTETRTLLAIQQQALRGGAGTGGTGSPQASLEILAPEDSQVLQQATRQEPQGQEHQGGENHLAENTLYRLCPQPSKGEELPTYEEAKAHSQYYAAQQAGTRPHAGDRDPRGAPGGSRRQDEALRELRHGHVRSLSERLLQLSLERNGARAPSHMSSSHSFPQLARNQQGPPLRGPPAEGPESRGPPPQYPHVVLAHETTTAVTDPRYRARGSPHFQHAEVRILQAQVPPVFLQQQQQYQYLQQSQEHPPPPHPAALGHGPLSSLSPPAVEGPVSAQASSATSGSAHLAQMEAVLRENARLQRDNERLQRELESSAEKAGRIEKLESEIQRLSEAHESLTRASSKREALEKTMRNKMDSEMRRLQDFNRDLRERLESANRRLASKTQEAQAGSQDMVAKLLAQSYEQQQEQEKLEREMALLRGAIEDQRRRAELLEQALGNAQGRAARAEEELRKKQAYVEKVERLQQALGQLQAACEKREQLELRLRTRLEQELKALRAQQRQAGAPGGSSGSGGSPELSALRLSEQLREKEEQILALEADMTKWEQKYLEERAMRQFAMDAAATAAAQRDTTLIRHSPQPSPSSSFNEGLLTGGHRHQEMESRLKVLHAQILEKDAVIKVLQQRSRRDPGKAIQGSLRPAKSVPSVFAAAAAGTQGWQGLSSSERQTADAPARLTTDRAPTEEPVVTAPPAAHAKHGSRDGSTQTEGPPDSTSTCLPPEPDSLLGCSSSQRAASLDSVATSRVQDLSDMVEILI
row,Variant,effect of a mutation on the interaction
1,V687I,with no effect

# Variants of: B5
# Conditions: with mtus2_human MTUS2, Q5JR59
# Sequence of mtus2_human MTUS2, Q5JR59 (Q5JR59 whole entry): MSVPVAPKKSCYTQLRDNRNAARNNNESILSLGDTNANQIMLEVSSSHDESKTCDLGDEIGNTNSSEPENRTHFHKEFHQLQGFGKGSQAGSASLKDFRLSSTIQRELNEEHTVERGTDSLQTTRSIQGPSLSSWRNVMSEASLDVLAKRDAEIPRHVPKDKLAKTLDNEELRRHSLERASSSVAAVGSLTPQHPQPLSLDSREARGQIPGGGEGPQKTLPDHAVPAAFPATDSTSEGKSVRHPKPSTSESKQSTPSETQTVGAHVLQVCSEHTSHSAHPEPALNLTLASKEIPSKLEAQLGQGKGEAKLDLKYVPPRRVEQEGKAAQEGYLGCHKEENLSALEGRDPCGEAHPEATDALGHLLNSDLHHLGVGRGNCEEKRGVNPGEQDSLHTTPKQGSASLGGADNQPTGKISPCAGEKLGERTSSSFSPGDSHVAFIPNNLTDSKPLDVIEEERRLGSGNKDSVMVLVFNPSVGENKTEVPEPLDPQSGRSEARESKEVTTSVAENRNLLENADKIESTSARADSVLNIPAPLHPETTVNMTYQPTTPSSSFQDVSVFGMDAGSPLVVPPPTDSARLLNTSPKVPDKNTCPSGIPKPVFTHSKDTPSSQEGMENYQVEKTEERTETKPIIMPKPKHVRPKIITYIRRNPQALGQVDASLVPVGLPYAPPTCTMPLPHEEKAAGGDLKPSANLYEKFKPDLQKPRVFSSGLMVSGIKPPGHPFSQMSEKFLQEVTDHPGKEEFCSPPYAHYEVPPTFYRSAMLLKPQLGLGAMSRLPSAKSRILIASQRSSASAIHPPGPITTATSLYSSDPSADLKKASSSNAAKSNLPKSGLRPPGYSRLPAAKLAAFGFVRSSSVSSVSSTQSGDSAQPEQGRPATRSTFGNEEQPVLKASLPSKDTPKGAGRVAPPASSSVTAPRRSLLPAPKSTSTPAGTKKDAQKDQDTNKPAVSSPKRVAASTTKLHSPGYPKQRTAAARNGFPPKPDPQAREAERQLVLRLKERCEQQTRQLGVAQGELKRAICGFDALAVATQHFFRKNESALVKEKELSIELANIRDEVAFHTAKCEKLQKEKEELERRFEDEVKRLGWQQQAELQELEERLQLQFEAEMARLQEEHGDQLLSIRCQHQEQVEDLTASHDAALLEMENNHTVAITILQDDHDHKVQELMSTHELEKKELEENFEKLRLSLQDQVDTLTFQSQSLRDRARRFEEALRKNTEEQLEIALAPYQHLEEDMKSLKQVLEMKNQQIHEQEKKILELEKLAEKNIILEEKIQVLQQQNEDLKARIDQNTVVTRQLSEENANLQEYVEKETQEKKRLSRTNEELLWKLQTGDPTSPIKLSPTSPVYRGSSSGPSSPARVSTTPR
row,Variant,effect of a mutation on the interaction
1,V687I,with no effect

# Variants of: B6
# Conditions: with serf2_human SERF2, P84101
row,Variant,effect of a mutation on the interaction
1,S9Y,disrupting interaction strength
2,V78I,with no effect
3,M270I,with no effect
